Measurements reported in patent publication US20170087188A1, “WNT INDUCED MOTILITY AND ENHANCED ENGRAFTMENT OF CELLS” (OTTAWA HOSPITAL RESEARCH INSTITUTE, priority 2014, published 2017).
Entries after “also recorded” stand apart in the source; their conditions may differ.

Experiments:
[1] = system: mdx mice; assay: Transplantation of Wnt-treated mouse primary myoblasts into mdx mice; format: in vivo; settings: treated zsGreen+ myoblasts; three weeks following transplantation; compared to Veh.
Protocol: In a clinical setting, freshly isolated satellite cells are often not readily available. Therefore, the effect of 3 h Wnt7a loading on cultured primary mouse myoblasts that were subsequently transplanted into injured muscles of immunosuppressed mdx mice (FIG. S5 A) was examined. After transplantation of 100,000 cells, the number of dystrophin-expressing myofibers was increased by 72% in muscles that were injected with Wnt7a treated myoblasts (FIG. 13B). […] In addition, the mean maximal cluster distance (dispersion) increased from 1.5 mm for Veh., to 2.0 mm for Wnt7a (FIG. 13D).
Transplantation of zsGreen-expressing satellite cells or myoblasts into mdx mice was performed as previously described (Bentzinger et al., 2013c). Before transplantation the cells were treated for 3 h with Wnt7a, Wnt5a, or Wnt3a (R&D Systems) at a concentration of 50 ng/mL for freshly isolated satellite cells or with 100 ng/mL for cultured cells. Myoblasts expressing tdTomato were transplanted into uninjured muscles of C57BL/6 mice that were implanted with an osmotic pump (Alzet) delivering FK506 (Sigma) at 2.5 mg/kg/day 3 days prior to the transplantations. In some experiments, the injection site was marked with blue fluorescent microspheres (2 μm, Life Technologies) that were added at a concentration of 1:100 (vol/vol) to the cell suspension. 10 μl of the cell-microsphere suspension was injected into the TA of each mouse using a Hamilton syringe.
Muscles frozen in liquid nitrogen were cut into 12 μm cross-sections. Cross-sections and cells were either fixed with ethanol (100%) or 2% PFA for 5 min, permeabilized with 0.1% Triton/0.1 M glycine/PBS for 10 min, blocked with 5% horse serum in PBS for several hours, and incubated with specific primary antibody in blocking buffer overnight at 4° C. Samples were subsequently washed with PBS and stained with appropriate fluorescently labeled secondary antibodies for 1 h at room temperature. After washing with PBS, samples were mounted with Permafluor (Fisher). Antibodies were as follows: chicken anti-GFP (Abcam, ab13970), mouse anti-Pax7 (DSHB), mouse anti-Dystrophin (7A10, DSHB), mouse anti-Rac1 (05-389, Millipore), mouse anti-Tubulin (Sigma, T9026), rabbit anti-Dvl2 (3224, Cell Signaling), rabbit anti-zsGreen (Clontech, 632474), rabbit anti-Laminin (Sigma, L9393), rabbit anti-HA (Millipore, 07-221).

[2] = system: primary myoblasts; assay: Proliferation of primary myoblasts over five days; format: cell-based; settings: 3 h exposure; various concentrations; over 5 days
Protocol: The proliferation of primary myoblasts following a 3 h exposure to various concentrations of Wnt7a was analyzed to control for the effect being due to changes in the cell cycle status of the transplanted cells.

[3] = system: mouse primary myoblasts; assay: Scratch migration assay, mouse primary myoblasts; format: cell-based
Protocol: Cellular polarization is indicative of increased motility (de Forges et al., 2012). Scratch assays were used to test whether Wnt7a and Fzd7 polarization affect cell motility. To exclude effects on the localization of cells arising from altered rates of proliferation, cells were treated with Mitomycin-C.
Fzd7 deficient cells migrated 59% less compared to heterozygous myoblasts and expression of Fzd7-Flag in Fzd7 knockout myoblasts restored migration to normal levels (FIG. 2D). […] To investigate whether the stimulation of myoblast migration is dose dependent, different concentrations of Wnt7a and Wnt3a were tested for their effect on migration.
Following plasmid transfection or application of Wnts (R&D Systems), the cells were treated with Mitomycin-C for 2 h (50 μg/mL). Subsequently, the monolayer of cells was scraped in a straight line. The plates were then extensively washed with culture medium and incubated for 24 h before analysis. Analysis was performed using DAPI staining after matching the reference points and enumeration of DAPI-stained nuclei in the scar was performed. Unless otherwise indicated, Wnt7a and Wnt3a were used at a concentration of 100 ng/mL in scratch assays. Monodansylcadaverine (MDC, 30432, Sigma) was used in scratch assays at a concentration of 50 μm.

[4] = system: β-catenin signaling; assay: TOP-flash luciferase reporter assay in C2C12 cells; format: cell-based; settings: different concentrations
Protocol: Different concentrations of Wnt7a were tested to exclude a dose dependent effect on β-catenin signaling, as measured by induction of TOP-flash activity in C2C12 cells.
The UBC-Fzd7-Flag (Fzd7-Flag), CMV-Fzd7-EYFP (Fzd7-YFP), CMV-Fzd3-EYFP (Fzd3-YFP), CMV-EYFP (YFP), CMV-EGFP-Rac1-wt (GFP-Rac1, 12980, Addgene), CMV-EGFP-Rac1-T17N (Rac1-DN, 12982, Addgene), CMV-EGFP-RhoA-T19N (RhoA-DN, 12967, Addgene) and CMV-EGFP-Cdc42-T17N (Cdc42-DN, 12976, Addgene) constructs have been described previously (Bentzinger et al., 2013a; Subauste et al., 2000; von Maltzahn et al., 2011). The Fzd7-tdtomato plasmid was generated by replacing the C-terminal YFP in Fzd7-YFP with tdTomato. For TOP-flash and FOP-flash the TCF reporter plasmid kit (17-285, Millipore) was used with the dual-luciferase reporter assay system (E1960, Promega). For normalization pGL4.74[hRluc/TK] (E6921, Promega) was cotransfected. For TOP-flash and FOP-flash assays the cells were transfected with GenJet lipofection reagent (SL100499, SignaGen). Otherwise, Lipofectamine 2000 (11668019, Life Technologies) was used for transfections.

| Molecule | mean maximal cluster distance [1] | number of dystrophin-expressing myofibers [1] | rate of proliferation of primary myoblasts [2] | dose dependency of myoblast migration ([3]; different concentrations tested, mouse primary myoblasts) | stimulation of cell migration ([3]; primary mouse myoblasts, 100 ng/mL) | TOP-flash reporter activity [4] |
| --- | --- | --- | --- | --- | --- | --- |
| Wnt3a: unrelated canonical Wnt protein (R&D Systems) used as comparison (protein, UniProt P56704 19-352, looked up) Protein Wnt-3a: SYPIWWSLAVGPQYSSLGSQPILCASIPGLVPKQLRFCRNYVEIMPSVAEGIKIGIQECQHQFRGRRWNCTTVHDSLAIFGPVLDKATRESAFVHAIASAGVAFAVTRSCAEGTAAICGCSSRHQGSPGKGWKWGGCSEDIEFGGMVSREFADARENRPDARSAMNRHNNEAGRQAIASHMHLKCKCHGLSGSCEVKTCWWSQPDFRAIGDFLKDKYDSASEMVVEKHRESRGWVETLRPRYTYFKVPTERDLVYYEASPNFCEPNPETGSFGTRDRTCNVSSHGIDGCDLLCCGRGHNARAERRREKCRCVFHWCCYVSCQECTRVYDVHTCK | no difference; also recorded: Neither the number of dystrophin-expressing myofibers (FIG. 13E) nor the mean maximal cluster distance (FIG. 13F) was changed | no difference; also recorded: Neither the number of dystrophin-expressing myofibers (FIG. 13E) nor the mean maximal cluster distance (FIG. 13F) was changed | reduced the proliferation of primary myoblasts | no significant effect at any concentration tested | does not affect cell migration; also recorded: did not stimulate cell migration | dose dependent increase; also recorded: dose dependent response |
| Wnt5a: Wnt protein (R&D Systems) used as comparison in myoblast transplantation (protein, UniProt P41221 62-380, looked up) Protein Wnt-5a: IIGAQPLCSQLAGLSQGQKKLCHLYQDHMQYIGEGAKTGIKECQYQFRHRRWNCSTVDNTSVFGRVMQIGSRETAFTYAVSAAGVVNAMSRACREGELSTCGCSRAARPKDLPRDWLWGGCGDNIDYGYRFAKEFVDARERERIHAKGSYESARILMNLHNNEAGRRTVYNLADVACKCHGVSGSCSLKTCWLQLADFRKVGDALKEKYDSAAAMRLNSRGKLVQVNSRFNSPTTQDLVYIDPSPDYCVRNESTGSLGTQGRLCNKTSEGMDGCELMCCGRGYDQFKTVQTERCHCKFHWCCYVKCKKCTEIVDQFVCK | no difference; also recorded: Neither the number of dystrophin-expressing myofibers (FIG. 13E) nor the mean maximal cluster distance (FIG. 13F) was changed | no difference; also recorded: Neither the number of dystrophin-expressing myofibers (FIG. 13E) nor the mean maximal cluster distance (FIG. 13F) was changed | – | – | – | – |
